Target: HDAC1-flag (Homo sapiens (Human), UniProt Q13547 1-482)
Assay: cell-based or functional assay

HDAC1-flag, sequence (Q13547 whole entry, form in doubt): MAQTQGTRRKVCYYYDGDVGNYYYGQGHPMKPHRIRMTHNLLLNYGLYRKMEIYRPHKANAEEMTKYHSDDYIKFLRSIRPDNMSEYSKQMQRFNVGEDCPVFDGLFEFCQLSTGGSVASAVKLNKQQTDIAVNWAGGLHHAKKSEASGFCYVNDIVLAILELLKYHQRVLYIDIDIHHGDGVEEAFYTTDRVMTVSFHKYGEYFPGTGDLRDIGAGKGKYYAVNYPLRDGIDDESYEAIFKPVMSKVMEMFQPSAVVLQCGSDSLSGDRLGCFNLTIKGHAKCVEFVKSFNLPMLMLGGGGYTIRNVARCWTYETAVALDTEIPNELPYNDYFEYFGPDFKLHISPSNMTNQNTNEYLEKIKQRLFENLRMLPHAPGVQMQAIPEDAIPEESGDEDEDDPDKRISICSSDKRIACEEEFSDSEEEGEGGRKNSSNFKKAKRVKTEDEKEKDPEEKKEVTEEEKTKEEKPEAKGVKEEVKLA

HDAC1 activity: release of acetic acid from a [3H]acetyl-labeled Histone H4 peptide by immunoprecipitated HDAC1: ~4 fold
B1: V5-APPL (full length APPL) (other, not shown: small tags and cut ends)
chain: MPGIDKLPIEETLEDSPQTRSLLGVFEEDATAISNYMNQLYQAMHRIYDAQNELSAATHLTSKLLKEYEKQRFPLGGDDEVMSSTLQQFSKVIDELSSCHAVLSTQLADAMMFPITQFKERDLKEILTLKEVFQIASNDHDAAINRYSRLSKKRENDKVKYEVTEDVYTSRKKQHQTMMHYFCALNTLQYKKKIALLEPLLGYMQAQISFFKMGSENLNEQLEEFLANIGTSVQNVRREMDSDIETMQQTIEDLEVASDPLYVPDPDPTKFPVNRNLTRKAGYLNARNKTGLVSSTWDRQFYFTQGGNLMSQARGDVAGGLAMDIDNCSVMAVDCEDRRYCFQITSFDGKKSSILQAESKKDHEEWICTINNISKQIYLSENPEETAARVNQSALEAVTPSPSFQQRHESLRPAAGQSRPPTARTSSSGSLGSESTNLAALSLDSLVAPDTPIQFDIISPVCEDQPGQAKAFGQGGRRTNPFGESGGSTKSETEDSILHQLFIVRFLGSMEVKSDDHPDVVYETMRQILAARAIHNIFRMTESHLLVTCDCLKLIDPQTQVTRLTFPLPCVVLYATHQENKRLFGFVLRTSSGRSESNLSSVCYIFESNNEGEKICDSVGLAKQIALHAELDRRASEKQKEIERVKEKQQKELNKQKQIEKDLEEQSRLIAASSRPNQASSEGQFVVLSSSQSEESDLGEGGKKRESEA
